Results: PMC4276739 (2015)
Blank lines part the entries; values can stand above or below the molecule they belong to.

Assays:
[1] = molecular target: ActRII ECD (Homo sapiens) (UniProt P27037); details: cited from earlier work
ALK3 (BMPRIa) ECD = molecular target: T1, ALK3 (BMPRIa) ECD (Homo sapiens, UniProt P36894); assay: SPR
T1 chain: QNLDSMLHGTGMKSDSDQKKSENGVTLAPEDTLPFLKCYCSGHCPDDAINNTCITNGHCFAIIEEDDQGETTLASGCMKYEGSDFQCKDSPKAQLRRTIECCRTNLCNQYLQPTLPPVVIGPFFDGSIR

Sequence of ActRII ECD (Homo sapiens) (P27037 20-135): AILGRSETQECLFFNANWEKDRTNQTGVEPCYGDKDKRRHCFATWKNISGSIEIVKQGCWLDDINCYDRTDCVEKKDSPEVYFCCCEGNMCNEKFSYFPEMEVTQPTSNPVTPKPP

Molecule: Activin A (from UniProt P08476)
Kd [1]: 0.2 nM

Kd (ALK3 (BMPRIa) ECD): 5 nM
B1: BMP2 (protein)
chain: QAKHKQRKRLKSSCKRHPLYVDFSDVGWNDWIVAPPGYHAFYCHGECPFPLADHLNSTNHAIVQTLVNSVNSKIPKACCVPTELSAISMLYLDENEKVVLKNYQDMVVEGCGCR
